Ki data for two molecules are collected here from publication PMC5634487, “Structural basis for IL-1α recognition by a modified DNA aptamer that specifically inhibits IL-1α signaling” (Nature Communications, 2017).

The assay has as its target T1, human IL-1α, biotinylated (human, UniProt P01583 113-271, biotin (EZ-Link NHS-Peg4-Biotin, 10-fold molar excess; sites not stated)).
T1 construct: interleukin-1 alpha (IL1A), human; crystallised); If it was the ProSpec protein, it may carry a His tag (surmised from the Talon beads); also called IL-1a; IL1F1; source: purified IL-1α protein, biotinylated with EZ-Link NHS-Peg4-Biotin
T1 sequence (looked up): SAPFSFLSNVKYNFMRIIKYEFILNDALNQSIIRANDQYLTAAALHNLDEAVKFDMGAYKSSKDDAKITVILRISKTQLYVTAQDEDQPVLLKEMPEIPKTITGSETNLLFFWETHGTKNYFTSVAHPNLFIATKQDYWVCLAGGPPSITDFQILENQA
The experiment in a line: radioligand binding; competition: 32P-labelled aptamer SL1067 (~30 pM) and unlabelled receptor (10^-6 to 10^-11 M) with biotinylated IL-1α (2 nM) in SB18T buffer (40 mM HEPES pH 7.5, 102 mM NaCl, 5 mM KCl, 5 mM MgCl2, 0.01% Tween-20), 37 °C, 60 min; complexes captured on MyOne streptavidin resin and Durapore filter plates; one-site competition model. To be noted: both partners purified.

B1: recombinant IL-1RI, extracellular domain (receptor, UniProt P14778 18-336, looked up)
chain: LEADKCKEREEKIILVSSANEIDVRPCPLNPNEHKGTITWYKDDSKTPVSTEQASRIHQHKEKLWFVPAKVEDSGHYYCVVRNSSYCLRIKISAKFVENEPNLCYNAQAIFKQKLPVAGDGGLVCPYMEFFKNENNELPKLQWYKDCKPLLLDNIHFSGVKDRLIVMNVAEKHRGNYTCHASYTYLGKQYPITRVIEFITLEENKPTRPVIVSPANETMEVDLGSQIQLICNVTGQLSDIAYWKWNGSVIDEDDPVLGEDYYSVENPANKRRSTLITVLNISEIESRFYKHPFTCFAKNTHGIDAAYIQLIYPVTNFQK
notes: interleukin-1 receptor type 1, extracellular domain; also called IL-1R1; IL-1 receptor; source: bought: R&D Systems
What is called Ki is a dissociation constant, usually derived from enzyme kinetics or from competition with a known ligand. A lower Ki goes with a stronger hold on the target. Molecule B1 showed an inhibition constant (Ki) of 0.021 µM.

B2: recombinant IL-1RII, extracellular domain (receptor, UniProt P27930 14-343, looked up)
chain: FTLQPAAHTGAARSCRFRGRHYKREFRLEGEPVALRCPQVPYWLWASVSPRINLTWHKNDSARTVPGEEETRMWAQDGALWLLPALQEDSGTYVCTTRNASYCDKMSIELRVFENTDAFLPFISYPQILTLSTSGVLVCPDLSEFTRDKTDVKIQWYKDSLLLDKDNEKFLSVRGTTHLLVHDVALEDAGYYRCVLTFAHEGQQYNITRSIELRIKKKKEETIPVIISPLKTISASLGSRLTIPCKVFLGTGTPLTTMLWWTANDTHIESAYPGGRVTEGPRQEYSENNENYIEVPLIFDPVTREDLHMDFKCVVHNTLSFQTLRTTVKE
notes: interleukin-1 receptor type 2, extracellular domain; also called IL-1RI1 (as printed in the methods); source: bought: R&D Systems
In turn, B2 showed a Ki of 0.29 µM.
